Source: patent publication US20180194862A1 (AbbVie / Abbott, published 2018)

What was measured:
[1] = target: T1, soluble form of the extracellular domain of human CD40 (Creative BioMart) (human, UniProt P25942 21-193); assay: SPR, Ab captured
T1 construct: Bought
Protocol: CD40 binding kinetics was analyzed by surface plasmon resonance assay with a Biacore T200 instrument (Table 1-5). Briefly, a goat anti-mouse Fc antibody (Pierce) or goat anti-human Fc (Pierce) was immobilized on a CM5 sensor chip, followed by capture of the anti-CD40 antibodies on the test surface. Subsequently, the soluble form of the extracellular domain of human CD40 (Creative BioMart) or cynomolgus (cyno) CD40 (Creative BioMart) was injected, and the binding and dissociation were measured.

[2] = target: human CD40 on cells (HEK293 stable transfectants, HEK-Blue CD40 cells, human B cells, monocytic cells, … (human, UniProt P25942 21-277)); assay: cell-based or functional assay
Chain of human CD40 on cells (HEK293 stable transfectants, HEK-Blue CD40 cells, human B cells, monocytic cells, … (P25942 21-277 limits assumed): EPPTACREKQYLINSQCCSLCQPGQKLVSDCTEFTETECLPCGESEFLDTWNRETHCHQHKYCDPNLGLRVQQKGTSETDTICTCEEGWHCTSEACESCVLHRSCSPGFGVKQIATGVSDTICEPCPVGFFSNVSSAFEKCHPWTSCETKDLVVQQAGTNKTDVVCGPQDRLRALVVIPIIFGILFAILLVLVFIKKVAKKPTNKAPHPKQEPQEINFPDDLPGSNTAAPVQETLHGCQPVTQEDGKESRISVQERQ

cynomolgus mesothelin = target: T2, cynomolgus mesothelin (cynomolgus); assay: SPR
T2 construct: also called cynoMSLN; Cyno MSLN

human mesothelin = target: T3, human mesothelin (human, UniProt Q13421 296-580, limits assumed); assay: SPR
T3 construct: also called Human MSLN
T3 sequence (Q13421 other isoform, or with tags, fused parts or gaps limits assumed): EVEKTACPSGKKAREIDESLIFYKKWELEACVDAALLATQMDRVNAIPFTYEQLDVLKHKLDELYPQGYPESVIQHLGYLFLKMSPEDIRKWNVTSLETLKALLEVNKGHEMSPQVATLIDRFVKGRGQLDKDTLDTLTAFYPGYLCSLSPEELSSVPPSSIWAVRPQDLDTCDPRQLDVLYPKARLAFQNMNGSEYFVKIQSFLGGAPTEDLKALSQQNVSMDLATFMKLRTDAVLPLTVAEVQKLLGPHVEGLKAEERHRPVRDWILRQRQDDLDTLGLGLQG

T1 sequence (P25942 21-193 limits assumed): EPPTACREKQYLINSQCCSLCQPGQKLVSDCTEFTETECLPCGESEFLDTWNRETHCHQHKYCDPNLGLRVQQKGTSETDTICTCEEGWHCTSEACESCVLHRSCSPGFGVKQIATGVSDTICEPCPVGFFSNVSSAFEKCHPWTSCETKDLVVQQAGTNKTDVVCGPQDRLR

Binder	Kd [1]	koff [1]	kon [1]	Monocyte activation (THP1-Xblue, OD655) [2]	moDC activation (IL-12p70) [2]	Kd (cynomolgus mesothelin)	koff (cynomolgus mesothelin)	kon (cynomolgus mesothelin)	Kd (human mesothelin)	koff (human mesothelin)	kon (human mesothelin)
AD163.7.2 (antibody, V domains shown, mouse hybridoma antibody; also called muAb8) VH: QVQLQQSGPELVKSGASVKISCKASGYTFTDYYINWVKQRPGQGLEWIGWIFPGSGSVYCNEQFKGQATLTVDRSSSTAYMLLSSLTSEDSAVYFCASSLGKFAYWGQGTLVTVSA VL: DIVMTQSQKFMSTTVGDRVSITCKASQSVVTAVAWYQQKPGQSPKLLIYSASNRYTGVPDRFTGSGSGTDFALTIRTMQSEDLADYFCQQYSSYPYTFGGGTKLEIK	4.1 nM	0.0042 s⁻¹	1e+06 M⁻¹ s⁻¹	0.13 OD655	905 pg/mL	–	–	–	–	–	–
AD163.162.1 (antibody, V domains shown, mouse hybridoma antibody; also called muAb6) VH: QVQLQQPGAELVRPGSSVKLSCKASGYTFTSYWMHWVKQRPIQGLEWIGNIDPSNGETHYNQKFKDKATLTVDKSSSTAYMQLSSLTSEDSAVYYCARERIYYSGSTYDGYFDVWGTGTTVTVSS VL: QIVLTQSPAIMSASPGEKVTMTCSASSSLSYMHWYQQKSGTSPKRWIYDTSKLASGVPARFSGSGSGTSYSLTISSMEAEDAATYYCQQWSSNPWTFGGGTKLEIK	63 nM	0.0048 s⁻¹	76000 M⁻¹ s⁻¹	0.11 OD655	2160 pg/mL	–	–	–	–	–	–
AD163.27.12 (antibody, V domains shown, mouse hybridoma antibody; also called muAb7) VH: QVQLQQPGAELVRPGSSVKLSCKASGYTFTSYWMHWVKQRPIQGLEWIGNIDPSNGETHYNQKFKDKATLTVDKSSSTAYMQLSSLTSEDSAVYYCARERIYYSGSTYDGYFDVWGTGTTVTVSS VL: QIVLTQSPAIMSASPGEKVTMTCSASSSLSYMHWYQQKSGTSPKRWIYDTSKLASGVPARFSGSGSGTSYSLTISSMEGEDGATYYCQQWSSNPWTFGGGTKLEIK	64 nM	0.0048 s⁻¹	75000 M⁻¹ s⁻¹	0.12 OD655	1510 pg/mL	–	–	–	–	–	–
AD164.76.3 (antibody, V domains shown, mouse hybridoma antibody; also called muAb10; AD164.76.2) VH: DVQLQESGPGLVKPSQSLSLTCSVTGYSITSNYYWNWIRQFPGNKLEWMGYIRYDGSNNYNPSLKNRISITRDTSKNQFFLRLNSVTTEDTATYYCTRLDYWGQGTTLTVSS VL: DAVMTQTPLSLPVSLGDQASISCRSSQSLENSNGNTFLNWFLQKPGQSPQLLIYRISNRFSGVPDRFSGSGSGTDFTLKISRVEAEDLGVYFCLQVTHVPFTFGSGTKLEIK	13 nM	0.034 s⁻¹	2.6e+06 M⁻¹ s⁻¹	0.16 OD655	770 pg/mL	–	–	–	–	–	–
AD164.14.6 (antibody, V domains shown, mouse hybridoma antibody; also called muAb9) VH: DVQLQESGPGLVKPSQSLSLTCSVTGYSITSNYYWNWIRQFPGNKLEWMGYIRYDGSNNYNPSLKNRISITRDTSKNQFFLKLNSVTTEDTATYYCARLDYWGQGTTLTVSS VL: DAVMTQTPLSLPVSLGDQASISCRSSQSLENTNGNTFLNWFLQKPGQSPQLLIYRVSNRFSGVPDRFSGSGSGTDFTLKISRVEAEDLGVYFCLQVTHVPFTFGSGTKLEIK	19 nM	0.052 s⁻¹	2.8e+06 M⁻¹ s⁻¹	0.15 OD655	878 pg/mL	–	–	–	–	–	–
AD165.1.2 (antibody, V domains shown, mouse hybridoma antibody; also called muAb5) VH: DVQLQESGPGLVEPSQSLFLTCSVTGYSITTNYNWNWIRQFPGNKLEWMGYIRHDGTNNYNPSLKNRISIIRDTPKNQFFLKLNSVTTEDTAIYFCTRLDYWGQGTSVTVSS VL: DAVMTQTPLSLPVSLGDQASISCRSSQSLENSYGNTFLNWFLQRPGQSPQLLIYRVSNRFCGVPDRFSGSGSGTDFTLKISRVEAEDLGIYFCLQVTHVPYTFGGGTKLEIK	0.88 nM	0.002 s⁻¹	2.3e+06 M⁻¹ s⁻¹	0.14 OD655	720 pg/mL	–	–	–	–	–	–
AD166.4.4 (antibody, V domains shown, mouse hybridoma antibody; also called muAb2) VH: QVQLQQSGAELMKPGASAKLSCKATGYTFTGYWIQWVKQRPGHGLEWIGEILPGGDHTKYNEKFRGKATFTSDTSSNTVYMQLSSLTTEDSAIYYCARVGGDYWGQGTTLTVSS VL: DVVMTQTPLSLPVSLGDQASISCRSSQSLVNSNENTYLHWYLQKPGQSPKLLIYKVFNRYSGVPDRFSGSGSGTDFTLKISRVEAEDLGVYFCFQSTHVPWTFGGGTKLEIK	3.5 nM	0.0096 s⁻¹	2.8e+06 M⁻¹ s⁻¹	0.24 OD655	0 pg/mL	–	–	–	–	–	–
AD175.14.11 (antibody, V domains shown, mouse hybridoma antibody; also called muAb3) VH: EVQLQQSGPELVKPGASVKISCKASGYTFTDYYMNWVKQSHGKSLEWIGDINPNNGGTSYNQKFKGKATLTVDKSSSTAYMELRSLTSEDSAVYYCARRGGLGRGTYALDYWGQGTSVTVSS VL: DIQMTQTTSSLSASLGDRVTISCRASQDISNYLNWYQQKPDGTVKPLIYYTSRLHLGVPSRFSGSGSGTDYSLTISNLEQEDIATYFCQQGNTLPLTFGAGTKLELK	170 nM	0.012 s⁻¹	69000 M⁻¹ s⁻¹	0.2 OD655	0 pg/mL	–	–	–	–	–	–
AD163.9.3 (antibody, V domains shown, mouse hybridoma antibody; also called muAb1) VH: QVQLQQPGAELVKPGASVKMSCKASGYTFTSYWITWVKQRPGQGLEWIGEINPGSGSTNYNEKFKSKATLTVDTSSSTAYMQLSSLTSEDSAVYYCARNRGTGDYWGQGTTLTVSS VL: DVVMTQTPLSLPVSLGDQASISCRSSQSLVHSYGNTYLHWYLQKPGQSPKFLIYKVSNRISGVPDRLSGSGSGTDFTLKISRVEPEDLGVYFCSQSTHVPYTFGGGTKLEIK	35 nM	0.016 s⁻¹	470000 M⁻¹ s⁻¹	0.19 OD655	2220 pg/mL	–	–	–	–	–	–
AD163.10.7 (antibody, V domains shown, mouse hybridoma antibody; also called muAb4) VH: LVQPGGSLSLSCAASGFTFSDYYMSWVRQPPGKALEWLGFIRNKANGYTTEFSASVKGRFTISRDNSQSILYLQMNALRAEDSATYYCARYGGLRQGWYFDVWGTGTTVTVSS VL: DIQMTQTTSSLSASLGDRVTISCRASQDIRNYLNWYQQKPDGTVKLLIYYTSRLHSGVPSRFSGSGSGTDYSLTISNLEQEDIATYFCQQGKTLPWTFGGGSKLEMK	76 nM	0.17 s⁻¹	2.3e+06 M⁻¹ s⁻¹	0.16 OD655	1320 pg/mL	–	–	–	–	–	–
HuAM1 (antibody, V domains shown, fully human antibody) VH: EVQLVQSGAEVKKPGASVKVSCKASGDTFKRYYVQWVRQAPGQGLEWMGIINPSGVSTTYAQKFQGRVTMTRDTSTSTVYMELSSLRSEDTAVYYCAESRGSGYNYFAMDVWGQGTLVTVSS VL: SYELTQPPSVSVSPGQTASITCSGDKLGDKYASWYQQKPGQSPVLVIYQDNRRPSGIPERFSGSNSGNTATLTISGTQAMDEADYYCQAWDSDTYVFGTGTKVTVL	–	–	–	–	–	11 nM	0.0002 s⁻¹	18000 M⁻¹ s⁻¹	2.7 nM	5.1e-05 s⁻¹	19000 M⁻¹ s⁻¹
HuAM6 (antibody, V domains shown, fully human antibody) VH: EVQLVQSGAEVKKPGASVKVSCKASGDTFNRYYVHWVRQAPGQGLEWMGIINPSGVSTTYAQKFQGRVTMTRDTSTSTVYMELSSLRSEDTAVYYCAESRVPGYNNFAMDVWGQGTLVTVSS VL: SYELTQPPSVSVSPGQTASITCSGDKLGDKYASWYQQKPGQSPVLVIYQDNRRPSGIPERFSGSNSGNTATLTISGTQAMDEADYYCQAWDSDTYVFGTGTKVTVL	–	–	–	–	–	3.9 nM	8.5e-05 s⁻¹	22000 M⁻¹ s⁻¹	1 nM	2.4e-05 s⁻¹	24000 M⁻¹ s⁻¹
HuAM7 (antibody, V domains shown, fully human antibody) VH: EVQLVQSGAEVKKPGASVKVSCKASGDTFNRYYVHWVRQAPGQGLEWMGIINPSGVSTTYAQKFQGRVTMTRDTSTSTVYMELSSLRSEDTAVYYCAEVRGSGYNYFGMDVWGQGTLVTVSS VL: SYELTQPPSVSVSPGQTASITCSGDKLGDKYASWYQQKPGQSPVLVIYQDNRRPSGIPERFSGSNSGNTATLTISGTQAMDEADYYCQAWDSDTYVFGTGTKVTVL	–	–	–	–	–	4.9 nM	0.00011 s⁻¹	22000 M⁻¹ s⁻¹	≤ 0.39 nM	≤ 1e-05 s⁻¹	26000 M⁻¹ s⁻¹
HuAM18 (antibody, V domains shown, fully human antibody) VH: EVQLVQSGAEVKKPGASVKVSCKASGDTFNRYYVHWVRQAPGQGLEWMGIINPSGVSTTYAQKFQGRVTMTRDTSTSTVYMELSSLRSEDTAVYYCAETRGSGYNYFGMDVWGQGTLVTVSS VL: SYELTQPPSVSVSPGQTASITCSGDKLGDKYASWYQQKPGQSPVLVIYQDNRRPSGIPERFSGSNSGNTATLTISGTQAMDEADYYCQAWDSDTYVFGTGTKVTVL	–	–	–	–	–	9.3 nM	0.00013 s⁻¹	14000 M⁻¹ s⁻¹	≤ 0.66 nM	≤ 1e-05 s⁻¹	16000 M⁻¹ s⁻¹
HuAM17 (antibody, V domains shown, fully human antibody) VH: EVQLVQSGAEVKKPGASVKVSCKASGDTFNRYYVQWVRQAPGQGLEWMGIINPSGVSTTYAQKFQGRVTMTRDTSTSTVYMELSSLRSEDTAVYYCAESRVPGYNIFAMDVWGQGTLVTVSS VL: SYELTQPPSVSVSPGQTASITCSGDKLGDKYASWYQQKPGQSPVLVIYQDNRRPSGIPERFSGSNSGNTATLTISGTQAMDEADYYCQAWDSDTYVFGTGTKVTVL	–	–	–	–	–	3.4 nM	9.1e-05 s⁻¹	27000 M⁻¹ s⁻¹	0.53 nM	1.5e-05 s⁻¹	29000 M⁻¹ s⁻¹
